Tests used:
c-Src SH2 = experiment: SH2 binding enrichment of the phosphorylated peptide, bacterial display (enrichment ratio); higher = better substrate or ligand; peptides without Tyr show the background
SHP2-C SH2 = experiment: as above
Grb2 SH2 = Grb2 SH2 (UniProt P62993); experiment: as above
Jak2 = Jak2 (UniProt O60674); experiment: phosphorylation enrichment, bacterial display (enrichment ratio); higher = better substrate or ligand; peptides without Tyr show the background
Fes = Fes (UniProt P07332); experiment: as above
EPHB2 = EPHB2 (UniProt P29323); experiment: as above
FGFR1 = FGFR1 (UniProt P11362); experiment: as above
AncSZ = experiment: as above
MERTK = MERTK (UniProt Q12866); experiment: as above
Hck = Hck (UniProt P08631); experiment: as above
EPHB1 = EPHB1 (UniProt P54762); experiment: as above
FGFR3 = FGFR3 (UniProt P22607); experiment: as above
c-Abl (mouse) = experiment: as above
Fyn = Fyn (UniProt P06241); experiment: as above
c-Src = experiment: as above
Fer (mouse) = experiment: as above
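Wherever SH2 binding enrichment of the phosphorylated peptide, bacterial display is given: peptide library displayed on the E. coli surface as eCPX fusions, selected cells deep-sequenced, score is each peptide's frequency after selection divided by its frequency in the input.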
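Wherever phosphorylation enrichment, bacterial display is given: 11-residue human phosphosite peptides and single-mutation variants displayed on the E. coli surface, counted by deep sequencing, each peptide's frequency after selection divided by its frequency in the unselected input library; frequency after pTyr selection over input frequency; kinase dosed for 20-30% of maximal phosphorylation in three min.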

EPHB1, sequence (P54762 whole entry, looked up): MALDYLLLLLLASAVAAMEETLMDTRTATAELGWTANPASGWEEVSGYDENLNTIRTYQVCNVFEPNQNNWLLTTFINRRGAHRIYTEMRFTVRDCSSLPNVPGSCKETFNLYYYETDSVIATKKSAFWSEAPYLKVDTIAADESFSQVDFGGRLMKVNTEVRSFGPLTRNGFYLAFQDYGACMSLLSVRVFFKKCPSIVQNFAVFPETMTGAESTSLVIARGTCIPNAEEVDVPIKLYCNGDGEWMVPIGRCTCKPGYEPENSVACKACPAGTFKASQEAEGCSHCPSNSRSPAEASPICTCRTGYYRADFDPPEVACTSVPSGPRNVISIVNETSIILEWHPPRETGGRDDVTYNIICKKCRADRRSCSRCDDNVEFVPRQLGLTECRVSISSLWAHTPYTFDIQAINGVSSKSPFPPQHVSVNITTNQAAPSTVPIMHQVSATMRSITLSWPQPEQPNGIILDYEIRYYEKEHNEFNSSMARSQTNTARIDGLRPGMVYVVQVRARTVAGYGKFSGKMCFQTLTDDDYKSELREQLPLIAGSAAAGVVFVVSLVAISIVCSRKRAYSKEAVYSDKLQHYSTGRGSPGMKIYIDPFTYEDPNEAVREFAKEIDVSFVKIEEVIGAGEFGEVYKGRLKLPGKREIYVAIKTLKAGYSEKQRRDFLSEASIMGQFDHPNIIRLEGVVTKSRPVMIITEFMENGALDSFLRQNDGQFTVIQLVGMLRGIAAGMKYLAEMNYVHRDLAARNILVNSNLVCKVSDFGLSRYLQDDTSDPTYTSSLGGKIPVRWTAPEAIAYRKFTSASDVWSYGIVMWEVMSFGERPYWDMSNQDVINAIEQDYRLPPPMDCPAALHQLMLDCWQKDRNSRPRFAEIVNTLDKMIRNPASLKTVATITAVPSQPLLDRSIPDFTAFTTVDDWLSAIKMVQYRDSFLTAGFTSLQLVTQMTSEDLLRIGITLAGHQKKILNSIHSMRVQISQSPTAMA
Hck, sequence (P08631 whole entry, looked up): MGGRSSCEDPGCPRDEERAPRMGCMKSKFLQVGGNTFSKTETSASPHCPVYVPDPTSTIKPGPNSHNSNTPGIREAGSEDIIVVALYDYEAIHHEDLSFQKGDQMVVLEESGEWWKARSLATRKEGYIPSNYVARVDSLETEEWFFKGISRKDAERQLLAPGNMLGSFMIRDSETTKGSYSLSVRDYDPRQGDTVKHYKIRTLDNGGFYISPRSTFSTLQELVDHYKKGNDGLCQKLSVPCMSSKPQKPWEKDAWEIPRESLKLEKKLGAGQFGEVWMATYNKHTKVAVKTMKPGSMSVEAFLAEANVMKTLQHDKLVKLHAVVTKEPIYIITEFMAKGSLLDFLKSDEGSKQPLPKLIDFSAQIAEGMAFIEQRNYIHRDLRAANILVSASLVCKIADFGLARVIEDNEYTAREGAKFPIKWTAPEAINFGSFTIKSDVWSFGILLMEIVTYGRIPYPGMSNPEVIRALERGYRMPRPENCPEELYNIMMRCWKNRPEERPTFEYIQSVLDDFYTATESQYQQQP
Fyn, sequence (P06241 whole entry, looked up): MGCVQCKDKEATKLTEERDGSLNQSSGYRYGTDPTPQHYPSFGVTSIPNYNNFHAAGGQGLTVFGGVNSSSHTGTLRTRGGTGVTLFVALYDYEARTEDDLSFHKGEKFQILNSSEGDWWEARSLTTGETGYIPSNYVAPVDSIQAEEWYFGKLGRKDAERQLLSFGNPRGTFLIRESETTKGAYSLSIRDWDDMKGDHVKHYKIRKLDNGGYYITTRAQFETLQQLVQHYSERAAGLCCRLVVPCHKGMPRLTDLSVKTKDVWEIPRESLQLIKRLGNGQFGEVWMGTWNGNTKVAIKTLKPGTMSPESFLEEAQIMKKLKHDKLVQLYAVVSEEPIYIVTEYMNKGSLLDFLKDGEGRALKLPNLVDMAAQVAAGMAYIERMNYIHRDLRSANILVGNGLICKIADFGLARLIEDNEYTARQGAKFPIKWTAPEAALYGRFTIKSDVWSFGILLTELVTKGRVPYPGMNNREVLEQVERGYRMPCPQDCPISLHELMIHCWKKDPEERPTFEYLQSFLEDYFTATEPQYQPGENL
FGFR3, sequence (P22607 whole entry, looked up): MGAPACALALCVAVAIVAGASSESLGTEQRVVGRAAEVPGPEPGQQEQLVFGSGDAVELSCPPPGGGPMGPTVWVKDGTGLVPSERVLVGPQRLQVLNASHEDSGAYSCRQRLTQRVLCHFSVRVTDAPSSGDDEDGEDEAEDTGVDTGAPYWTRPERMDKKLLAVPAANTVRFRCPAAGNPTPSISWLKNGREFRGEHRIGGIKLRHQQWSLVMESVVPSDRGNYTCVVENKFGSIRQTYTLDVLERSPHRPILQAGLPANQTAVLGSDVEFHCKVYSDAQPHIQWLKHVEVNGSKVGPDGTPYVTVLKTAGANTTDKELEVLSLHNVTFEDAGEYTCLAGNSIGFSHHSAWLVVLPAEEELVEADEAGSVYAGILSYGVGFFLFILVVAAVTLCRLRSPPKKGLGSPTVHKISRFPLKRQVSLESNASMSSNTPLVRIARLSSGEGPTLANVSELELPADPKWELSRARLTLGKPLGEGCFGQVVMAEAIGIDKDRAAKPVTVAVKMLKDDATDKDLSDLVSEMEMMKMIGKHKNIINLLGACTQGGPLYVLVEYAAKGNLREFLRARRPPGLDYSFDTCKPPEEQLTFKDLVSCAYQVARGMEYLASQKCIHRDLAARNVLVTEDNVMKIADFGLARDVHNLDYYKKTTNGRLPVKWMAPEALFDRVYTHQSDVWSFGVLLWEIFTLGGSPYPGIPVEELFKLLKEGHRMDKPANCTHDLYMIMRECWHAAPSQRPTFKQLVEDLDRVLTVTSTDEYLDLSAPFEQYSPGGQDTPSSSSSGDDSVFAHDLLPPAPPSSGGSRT
Jak2, sequence (O60674 whole entry, looked up): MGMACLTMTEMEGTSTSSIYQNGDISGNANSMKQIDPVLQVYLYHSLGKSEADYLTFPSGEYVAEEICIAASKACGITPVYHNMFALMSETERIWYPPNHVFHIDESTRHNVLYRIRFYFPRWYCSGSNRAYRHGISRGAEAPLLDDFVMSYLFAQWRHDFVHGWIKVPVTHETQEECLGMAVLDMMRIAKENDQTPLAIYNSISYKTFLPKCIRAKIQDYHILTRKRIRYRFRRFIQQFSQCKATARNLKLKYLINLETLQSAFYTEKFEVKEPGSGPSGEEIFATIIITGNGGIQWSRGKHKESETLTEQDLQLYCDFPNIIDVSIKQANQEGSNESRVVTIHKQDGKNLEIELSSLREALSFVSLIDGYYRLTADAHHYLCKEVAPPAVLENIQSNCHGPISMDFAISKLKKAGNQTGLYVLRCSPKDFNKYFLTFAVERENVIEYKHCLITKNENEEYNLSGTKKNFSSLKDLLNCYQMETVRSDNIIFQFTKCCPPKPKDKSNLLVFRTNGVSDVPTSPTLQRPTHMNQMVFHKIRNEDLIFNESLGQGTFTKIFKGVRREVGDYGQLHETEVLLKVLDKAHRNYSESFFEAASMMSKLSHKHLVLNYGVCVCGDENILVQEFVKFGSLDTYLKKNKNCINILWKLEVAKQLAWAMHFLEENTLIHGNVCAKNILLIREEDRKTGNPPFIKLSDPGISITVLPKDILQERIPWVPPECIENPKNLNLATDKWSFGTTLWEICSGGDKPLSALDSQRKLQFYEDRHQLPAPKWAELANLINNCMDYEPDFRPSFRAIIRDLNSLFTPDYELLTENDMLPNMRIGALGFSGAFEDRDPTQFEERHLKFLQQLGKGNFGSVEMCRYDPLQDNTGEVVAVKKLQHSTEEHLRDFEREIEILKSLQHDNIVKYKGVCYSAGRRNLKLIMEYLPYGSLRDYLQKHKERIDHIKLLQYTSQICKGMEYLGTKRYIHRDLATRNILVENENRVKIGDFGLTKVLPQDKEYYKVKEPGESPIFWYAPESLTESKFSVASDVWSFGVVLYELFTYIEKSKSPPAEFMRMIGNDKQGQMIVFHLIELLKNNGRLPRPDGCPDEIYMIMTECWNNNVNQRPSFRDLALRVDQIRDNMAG
Fes, sequence (P07332 whole entry, looked up): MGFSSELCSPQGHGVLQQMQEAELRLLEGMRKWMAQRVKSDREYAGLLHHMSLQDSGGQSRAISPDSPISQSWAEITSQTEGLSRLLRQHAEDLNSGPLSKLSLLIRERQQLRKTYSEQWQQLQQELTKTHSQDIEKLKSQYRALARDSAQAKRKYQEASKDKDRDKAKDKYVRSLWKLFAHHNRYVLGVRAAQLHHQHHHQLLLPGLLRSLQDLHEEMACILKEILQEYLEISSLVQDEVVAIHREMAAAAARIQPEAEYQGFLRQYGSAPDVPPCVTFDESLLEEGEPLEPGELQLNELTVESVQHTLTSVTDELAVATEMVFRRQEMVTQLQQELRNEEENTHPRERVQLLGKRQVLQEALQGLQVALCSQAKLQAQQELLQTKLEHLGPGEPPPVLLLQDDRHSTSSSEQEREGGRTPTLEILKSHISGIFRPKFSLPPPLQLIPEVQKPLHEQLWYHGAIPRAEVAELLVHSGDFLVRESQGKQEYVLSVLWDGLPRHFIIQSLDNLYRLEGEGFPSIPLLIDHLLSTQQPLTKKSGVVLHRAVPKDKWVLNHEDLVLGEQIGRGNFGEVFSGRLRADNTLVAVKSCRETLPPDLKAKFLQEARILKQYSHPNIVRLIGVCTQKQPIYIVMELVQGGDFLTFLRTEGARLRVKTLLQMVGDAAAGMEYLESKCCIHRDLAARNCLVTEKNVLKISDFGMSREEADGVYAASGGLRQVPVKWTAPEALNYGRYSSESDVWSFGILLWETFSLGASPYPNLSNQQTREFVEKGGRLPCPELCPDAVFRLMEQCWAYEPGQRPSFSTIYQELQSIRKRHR
Grb2 SH2, sequence (P62993 whole entry, looked up): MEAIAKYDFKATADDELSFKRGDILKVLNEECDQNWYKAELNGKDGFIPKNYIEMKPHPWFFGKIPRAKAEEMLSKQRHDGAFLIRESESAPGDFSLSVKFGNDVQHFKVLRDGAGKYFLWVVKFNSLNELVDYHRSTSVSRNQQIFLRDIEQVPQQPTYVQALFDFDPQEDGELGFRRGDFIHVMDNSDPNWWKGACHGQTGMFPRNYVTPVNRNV

| Sequence | SH2 binding enrichment (c-Src SH2) | SH2 binding enrichment (SHP2-C SH2) | SH2 binding enrichment (Grb2 SH2) | phosphorylation enrichment (Jak2) | phosphorylation enrichment (Fes) | phosphorylation enrichment (EPHB2) | phosphorylation enrichment (FGFR1) | phosphorylation enrichment (AncSZ) | phosphorylation enrichment (MERTK) | phosphorylation enrichment (Hck) | phosphorylation enrichment (EPHB1) | phosphorylation enrichment (FGFR3) | phosphorylation enrichment (c-Abl (mouse)) | phosphorylation enrichment (Fyn) | phosphorylation enrichment (c-Src) | phosphorylation enrichment (Fer (mouse)) |
| --- | --- | --- | --- | --- | --- | --- | --- | --- | --- | --- | --- | --- | --- | --- | --- | --- |
| NVADHYGVYKP [ATP6V0D2_Y271] | 0.597 | 0.647 | 0.917 | 0.517 | 0.645 | 0.391 | 0.461 | 0.571 | 0.356 | 3.71 | 0.401 | 0.451 | 0.587 | 5.55 | 4.89 | 0.424 |
| CHKRTYKVTGL | 1.07 | 0.898 | 1.13 | 0.657 | 0.667 | 0.357 | 0.362 | 0.587 | 0.375 | 0.401 | 0.405 | 0.465 | 0.564 | 0.417 | 0.455 | 0.398 |
| TDKLFYIYTSG [SLC27A4_Y243] | 0.443 | 1.75 | 0.677 | 1.48 | 1.94 | 0.682 | 0.565 | 1.5 | 0.589 | 0.522 | 0.701 | 0.811 | 1.18 | 0.48 | 0.542 | 0.517 |
| EASGIYVKSVI [PATJ_Y396_I400V] | 0.481 | 0.55 | 0.783 | 0.97 | 1.1 | 0.465 | 0.47 | 0.958 | 0.366 | 0.501 | 0.543 | 0.741 | 0.716 | 0.433 | 0.462 | 0.481 |
| PFADPYFDFEI [ZC3H18_Y371_YF] | 0.666 | 1.03 | 0.857 | 1.7 | 1.16 | 0.369 | 9.45 | 1.48 | 0.638 | 0.597 | 0.673 | 6.94 | 0.811 | 0.885 | 4.46 | 0.902 |
| DGTIVCTGLET [USH2A_Y4487_Y4487C] | 0.489 | 0.632 | 0.936 | 1.06 | 1.12 | 0.558 | 0.509 | 0.955 | 0.47 | 0.438 | 0.533 | 0.636 | 0.837 | 0.454 | 0.499 | 0.582 |
| EEKKKYFDAKI [CASP5_Y103_T106A_YF] | 0.446 | 0.672 | 1.01 | 0.684 | 0.818 | 0.43 | 0.488 | 0.798 | 0.501 | 0.442 | 0.385 | 0.464 | 0.58 | 0.4 | 0.479 | 0.401 |
| VSVVDYVEPSP [TXNRD2_Y70_A66S] | 0.58 | 0.757 | 0.888 | 0.725 | 1.05 | 0.547 | 0.804 | 1.21 | 0.485 | 0.565 | 0.595 | 0.629 | 0.576 | 0.494 | 0.489 | 0.521 |
| TNGFTYGSSHQ [MANEA_Y331] | 0.434 | 0.493 | 0.74 | 0.413 | 0.576 | 0.31 | 0.525 | 0.566 | 0.441 | 0.443 | 0.444 | 0.39 | 0.412 | 0.492 | 0.404 | 0.514 |
| LGKGSYAKVKS [TSSK2_Y23] | 1.65 | 1.5 | 0.777 | 1.54 | 1.83 | 0.875 | 0.955 | 0.884 | 1.11 | 0.985 | 0.482 | 0.844 | 1.26 | 1.37 | 1.53 | 0.693 |
| SSYSRYIMMPN [LEF1_Y114_G113R] | 1.32 | 1.56 | 0.665 | 2.35 | 0.637 | 1.84 | 1.79 | 0.654 | 3.9 | 0.488 | 1.9 | 1.3 | 0.405 | 0.542 | 0.518 | 0.552 |
| RQGKDYVGAIP [KDR_Y951] | 0.488 | 0.79 | 0.818 | 0.656 | 0.832 | 0.442 | 1.44 | 0.705 | 0.485 | 0.452 | 0.471 | 0.409 | 0.636 | 0.552 | 0.487 | 0.361 |
| ALHHPYGCDVE [ABL2_Y80_R78H] | 0.773 | 0.771 | 1.03 | 0.708 | 0.998 | 0.621 | 0.441 | 0.803 | 0.44 | 0.541 | 0.606 | 0.726 | 0.681 | 0.44 | 0.669 | 0.447 |
| NGRQCYSCKGN [PLAUR_Y217] | 1.01 | 0.908 | 0.959 | 0.574 | 0.456 | 0.336 | 0.381 | 0.481 | 0.379 | 0.336 | 0.266 | 0.341 | 0.416 | 0.324 | 0.346 | 0.377 |
| CASQLYPRHKH [DCTN4_Y263] | 0.916 | 0.865 | 0.975 | 1.02 | 0.928 | 0.464 | 0.533 | 0.673 | 0.428 | 0.483 | 0.43 | 0.639 | 0.807 | 0.38 | 0.405 | 0.44 |
| AIFEGYALPHA [ACTC1_Y171_P166A_YF] | 5.11 | 0.518 | 0.932 | 0.539 | 0.801 | 0.401 | 0.549 | 0.732 | 0.726 | 0.43 | 0.452 | 0.535 | 1.2 | 0.472 | 0.414 | 0.605 |

Source: the supplement of paper PMC10065799, “High-throughput profiling of sequence recognition by tyrosine kinases and SH2 domains using bacterial peptide display” (eLife, 2023)
